The conditions of this data set: Bacillus amyloliquefaciens, pH 6.3, 25 °C, Fluorescence, MES 450 mM, reversible: yes, whole UniProt chain shown.

B1: Ribonuclease wild type, P00648 (protein)
chain: MMKMEGIALKKRLSWISVCLLVLVSAAGMLFSTAAKTETSSHKAHTEAQVINTFDGVADYLQTYHKLPDNYITKSEAQALGWVASKGNLADVAPGKSIGGDIFSNREGKLPGKSGRTWREADINYTSGFRNSDRILYSSDWLIYKTTDHYQTFTKIR
For B1, under “GdnHCl”, the denaturant m value turned out to be 4.4 kcal/mol/M, the “denaturant midpoint (higher = more stable)” value worked out at 2 M and the unfolding free energy was 8.8 kcal/mol. Further, for the setting “Urea”, the denaturant m value amounted to 1.92 kcal/mol/M, the “denaturant midpoint (higher = more stable)” value is 4.58 M and the unfolding free energy stood at 8.79 kcal/mol.

Values taken from FireProtDB (doi:10.1021/bi00067a022).
